3 molecules from patent US20190374606A1 can be followed below.

Substitutions are numbered along the chain they refer to.

Assay [1] addresses TrkA (NIH-TrkA cells). In words: flow cytometry competition on NIH-TrkA cells; 20 nM Biotin-NT3 tracer, 3-fold excess unlabeled competitor; value is the Biotin-NT3 binding remaining.
The target in assay [2] is TrkC (NIH-TrkC cells). As to the kind of experiment: flow cytometry competition on NIH-TrkC cells; 20 nM Biotin-NT3 tracer, 200 nM unlabeled competitor; value is the Biotin-NT3 binding remaining.
Assay [3] has as its target TrkC (NIH-TrkC cells). As to the kind of experiment: cell-based or functional assay.
For assay [4], the target named is TrkA (NIH-TrkA cells). In words: flow cytometry competition on NIH-TrkA cells; 20 nM Biotin-NT3 tracer, 3-fold excess unlabeled competitor; value is the Biotin-NT3 signal remaining.
Assay [5] deals with TrkC (NIH-TrkC cells). In words: flow cytometry competition on NIH-TrkC cells; 20 nM Biotin-NT3 tracer, 200 nM unlabeled competitor; value is the Biotin-NT3 signal remaining.
For assay [6], the target named is p75 (NIH-p75 cells). As to the kind of experiment: flow cytometry competition on NIH-p75 cells; 20 nM Biotin-NT3 tracer, 200 nM unlabeled competitor; value is the Biotin-NT3 signal remaining.
Assay [7] addresses p75 (NIH-p75 cells). In words: flow cytometry competition on NIH-p75 cells; 20 nM Biotin-NT3 tracer, 200 nM unlabeled competitor; value is the Biotin-NT3 binding remaining.
In assay [8] the target is p75 (NIH-p75 cells). In words: flow cytometry (fluorescent avidin) on NIH-p75 cells; 20 nM Biotin-NT3, no competitor.
In assay [9] the target is TrkC (NIH-TrkC cells). In words: flow cytometry (fluorescent avidin) on NIH-TrkC cells; 20 nM Biotin-NT3, no competitor.
Assay [10] has as its target TrkA (NIH-TrkA cells). In words: flow cytometry (fluorescent avidin) on NIH-TrkA cells; 20 nM Biotin-NT3, no competitor.

B1: Wild type NT-3 (Neurotrophin 3, mature form) (ligand)
chain: YAEHKSHRGEYSVCDSESLWVTDKSSAIDIRGHQVTVLGEIKTGNSPVKQYFYETRCKEARPVKNGCRGIDDKHWNSQCKTSQTYVRALTSENNKLVGWRWIRIDTSCVCALSRKIGRT
In turn, B1 returned a % of maximal binding to TrkA in assay [1] of 36%. In assay [2], this molecule displayed a % of maximal binding to TrkC of 18%. The same molecule returned a % survival at 0.1 nM, TrkC-expressing cells in serum free media in [3] of 34%. Also, in [4], the NIH-TrkA MCF was found to be 20. Further, in assay [5], the NIH-TrkC MCF came out at 25.

B2: NT-3 mutant (SEQ ID NO: 23) (ligand)
chain: B1 chain with D15A, R114A, K115A
Consider B2, for which the NIH-p75 MCF in assay [6] was 69. This molecule also showed a % of maximal binding to TrkC in assay [2] of 13%. In assay [7], the % of maximal binding to p75 is 89%. Moreover, in assay [4], the NIH-TrkA MCF worked out at 16.

B3: Biotin-NT-3 (wild type NT-3 covalently linked to biotin) (ligand)
chain: B1 chain
modifications: biotin, site not given
Molecule B3 displayed an NIH-p75 MCF in assay [8] of 76. The molecule further returned an NIH-TrkC MCF in assay [9] of 93. Also, the NIH-TrkA MCF in assay [10] was 38.
